Measured values published in paper PMC3045603.

Experiments:
[1] = target: wild-type yeast ScNep1 with an N-terminal hexahistidine tag (S. cerevisiae) (UniProt Q06287); test: SEC
[2] = target: yeast ScNep1^D90G (Bowen-Conradi syndrome mutation) with an N-terminal hexahistidine tag (S. cerevisiae) (UniProt Q06287); test: SEC

Kd [1] [µM]	Kd [2] [µM]	stoichiometry N [2]	Substance
134			wild-type yeast ScNep1 with an N-terminal hexahistidine tag (from UniProt Q06287 1-252) (enzyme)
	5.8	2	yeast ScNep1^D90G (Bowen-Conradi syndrome mutation) with an N-terminal hexahistidine tag (from UniProt Q06287 1-252) (enzyme)
